Data taken from patent US20250215403A1, “Compositions and Methods for Cardiac Tissue Regeneration” (Temple University - Of The Commonwealth System Of Higher …, priority 2022, published 2025).

Legend:
[1] = system: NRVM (neonatal rat ventricular CMs); test: NRVM transfection (modRNA, siRNA, PH755): CM cell cycle markers and CM number; assay type: cell-based
Experimental: In vivo transfection of modRNA was done as described previously in a recent method paper (Magadum A., et al., Circulation. 2020, 141 (15): 1249-1265; Sultana N., et al., Mol Ther, 2017, 25 (6): 1306-1315) using sucrose citrate buffer containing 10 μl of sucrose in nuclease-free water (0.3 g/ml), 10 μl of citrate (0.1M pH-7; Sigma) mixed with 10 μl of different concentrations of modRNA in saline to a total volume of 30 μl. Immediately after LAD ligation, mice received an intra-myocardial injection of modRNA (100 μg) in total volume of 30 μL at 3 different sites (mid-anterior×2 places and apical anterior) in the peri-infarct area (Magadum A., et al., Circulation. 2020, 141 (15): 1249-1265; Magadum, A., et al., 2021, Advanced Science, 9:2004661). For in vitro transfection, RNAiMAX transfection reagent (Life Technologies) was used according to manufacturer's recommendation (Magadum A., et al., Circulation. 2020, 141 (15): 1249-1265; Sultana N., et al., Mol Ther, 2017, 25 (6): 1306-1315).
Mice hearts were harvested, weighed, and fixed in 4% PFA/PBS overnight on shaker and then washed with PBS for 1 hour and incubated in 30% sucrose/PBS at 4° C. for 12-18 hours. Hearts were then fixed in OCT and frozen at −80° C. (Magadum A., et al., Circulation. 2020, 141 (15): 1249-1265). Transverse heart sections (6-8 μm) were made using a cryostat. Frozen sections were rehydrated in PBS for 5-10 min followed by permeabilization with PBS with 0.1% Triton™ X100 (PBST) for 7-8 min. Heart sections were then treated with 3% H2O2 for 5 min and washed (3×5 min) with PBST. The samples were then blocked with PBS+10% Donkey normal serum+0.1% Triton™ X100 (PBSST) for 1 hour at room temperature. Primary antibodies (see complete list of primary antibodies used for this Example in Table 2 below) diluted in PBST were added and incubated overnight at 4° C. Slides were washed with PBST (3×5 min) followed by incubation with a secondary antibody (Invitrogen, 1:200) diluted in PBST for 90-120 min at room temperature. The samples were further washed with PBST (3×5 min) and stained with DAPI or Hoechst 33342 (1 μg/ml) diluted in PBST for 7 min. […] For immunostaining with wheat germ agglutinin (WGA) for CM size quantification, images were captured at 40× magnification, and ImageJ was used to determine the area of each cell. Quantitative analyses involved counting of multiple fields from 5-8 mouse hearts per group, and 3-4 sections/heart (˜50 cells per field assessed, for a total ˜250 cells per sample). […] BrdU positive CMs were counted in multiple fields from three independent samples per group and 3 sections/heart. The total number of CMs counted was ˜1-1.5×10^3 CMs per section. […]

[2] = system: GSK3β; test: Western blot of Ser9 phosphorylation of GSK3β in NRVM; assay type: cell-based, rat; conditions: compared to Luc modRNA
Experimental: Total protein was isolated from the respective cells or tissues at given time points. In brief, equal amounts of protein were resolved by SDS-PAG Electrophoresis system in 4%-15% Mini-PROTEAN TGX stain-free gels (Bio-Rad) and blotted onto nitrocellulose membranes (Bio-Rad). The membranes were blocked in Intercept® (TBS) blocking buffer (LI-COR) diluted 1:1 with PBS for 1 hour at room temperature and washed with PBST (1% Tween® 20, pH 7.4) for 10 min. Primary antibodies diluted in blocking buffer were added and incubated overnight at 4° C. Anti-PSAT1 (1:1,000, Invitrogen, #PA5-22124), anti-Flotillin 1 (1:1,000, Cell Signaling, #3253), anti-pSer9GSK3B (1:1,000, Cell Signaling, #9336), anti-GSK3B (1:1,000, Cell Signaling, #9315), and anti-β-actin (1:1000, Santa Cruz, #sc-47778) antibodies were used. The next day, membranes were washed with PBST (3×10 min). Anti-rabbit and anti-mouse IRDye 800CW secondary antibodies (LI-COR) were applied for 1 hr at room temperature. The membranes were washed with PBST (3×10 min) and antigen or antibody complexes were visualized and quantified using Odyssey Fc Imaging System (LI-COR Biosciences, model number 2800).

B1: PSAT1 modRNA: modified mRNA with N1-methylpseudouridine, transcribed in vitro, encoding phosphoserine aminotransferase 1 (ORF SEQ ID NO: 1, RNA SEQ ID NO: 2) (nucleic acid)
chain: AUGGAAGCCACCAAGCAAGUGGUUAACUUUGGGCCCGGGCCUGCCAAGCUGCCACACUCGGUAUUGUUGGAGAUCCAGAAGCAGCUACUAGACUACAGAGGACUCGGCAUCAGUGUGCUCGAAAUGAGUCACAGGUCAUCAGAUUUUGCCAAGAUUAUUGGCAAUACAGAGAAUCUUGUGAGGGAAUUGCUAGCUGUUCCCAACAACUACAAGGUGAUCUUUGUACAAGGAGGUGGGUCUGGCCAGUUCAGUGCUGUCCCCUUAAAUCUGAUUGGCCUGAAAGCUGGAAGGAGUGCUGACUACGUGGUGACCGGAGCUUGGUCAGCUAAGGCUGCGGAAGAAGCCAAGAAGUUUGGAACGGUGAACAUUGUCCACCCUAAACUUGGAAGUUACACAAAAAUUCCAGACCCAAGCACCUGGAACCUCAACCCGGACGCCUCCUAUGUAUACUUCUGUGCAAACGAGACUGUGCACGGGGUGGAGUUUGACUUCGUACCUGACGUCAAGGGAGCGGUGCUGGUCUGUGACAUGUCCUCAAACUUCUUAUCCAGGCCGGUGGAUGUUUCCAAGUUUGGUGUGAUUUUCGCUGGUGCUCAGAAGAAUGUUGGCUCUGCCGGGGUGACGGUGGUGAUUGUCCGGGAUGACCUGCUGGGGUUCUCGCUCAGAGAGUGCCCAUCAGUCCUUGACUACAAAGUGCAGGCUGGGAACAACUCUUUGUAUAACACACCUCCGUGCUUCAGCAUCUACGUCAUGGGCAUGGUCCUGGAAUGGAUCAAGAACAACGGCGGGGCCGCAGCCAUGGAGAAGCUCAGCUCCAUCAAAUCCCAAAUGAUUUAUGAGAUCAUUGAUAAUUCUCAAGGAUUUUAUGUAUGCCCAGUGGAGCGCCAGAAUAGAAGCAGGAUGAACAUCCCAUUUCGCAUUGGCAACGCCAAAGGAGACGAAGCUUUGGAAAAGCGGUUUCUUGACAAGGCGGUAGAACUCAACAUGAUCUCCUUGAAGGGGCACAGGUCAGUGGGAGGCAUUCGUGCCUCUCUGUAUAACGCUGUCACAACCGAAGACGUUGAGAAGCUGGCGGCCUUCAUGAAGAAUUUCUUGGAGAUGCAUCAGCUGUGA
modifications: N1-methylpseudouridine
CM mitosis (pH3+) ([1]; NRVM, after 3 days, vs Luc modRNA): significantly induced | CM number ([1]; NRVM, in 5 days, vs Luc modRNA): increased | CM cell cycle restriction under SSP inhibition ([1]; NRVM, PSAT1 modRNA plus PH755 10 μM, compared to control, significantly lower rate than PSAT1 modRNA alone): partially reversed | dedifferentiation of CMs ([1]; post-PSAT1 modRNA expression): Increased | phosphorylation of GSK3β at Ser9 [2]: induces
